Patent US20190134153A1, “IMMUNOMODULATORY EFFECT OF INHALED KINASE INHIBITOR PEPTIDES IN LUNG” (MOERAE MATRIX, INC., priority 2017, published 2019)

Tests used:
Assay in all cases: Kinase Profiling Assay
Type in all cases: biochemical
Details in all cases: 100 μM
[1] = target: AMPKα2(h) (Homo sapiens, UniProt P54646)
[2] = target: Axl(h) (Homo sapiens, UniProt P30530)
[3] = target: T1, EphA3(h) (Homo sapiens, UniProt P29320)
T1 sequence (P29320 21-983): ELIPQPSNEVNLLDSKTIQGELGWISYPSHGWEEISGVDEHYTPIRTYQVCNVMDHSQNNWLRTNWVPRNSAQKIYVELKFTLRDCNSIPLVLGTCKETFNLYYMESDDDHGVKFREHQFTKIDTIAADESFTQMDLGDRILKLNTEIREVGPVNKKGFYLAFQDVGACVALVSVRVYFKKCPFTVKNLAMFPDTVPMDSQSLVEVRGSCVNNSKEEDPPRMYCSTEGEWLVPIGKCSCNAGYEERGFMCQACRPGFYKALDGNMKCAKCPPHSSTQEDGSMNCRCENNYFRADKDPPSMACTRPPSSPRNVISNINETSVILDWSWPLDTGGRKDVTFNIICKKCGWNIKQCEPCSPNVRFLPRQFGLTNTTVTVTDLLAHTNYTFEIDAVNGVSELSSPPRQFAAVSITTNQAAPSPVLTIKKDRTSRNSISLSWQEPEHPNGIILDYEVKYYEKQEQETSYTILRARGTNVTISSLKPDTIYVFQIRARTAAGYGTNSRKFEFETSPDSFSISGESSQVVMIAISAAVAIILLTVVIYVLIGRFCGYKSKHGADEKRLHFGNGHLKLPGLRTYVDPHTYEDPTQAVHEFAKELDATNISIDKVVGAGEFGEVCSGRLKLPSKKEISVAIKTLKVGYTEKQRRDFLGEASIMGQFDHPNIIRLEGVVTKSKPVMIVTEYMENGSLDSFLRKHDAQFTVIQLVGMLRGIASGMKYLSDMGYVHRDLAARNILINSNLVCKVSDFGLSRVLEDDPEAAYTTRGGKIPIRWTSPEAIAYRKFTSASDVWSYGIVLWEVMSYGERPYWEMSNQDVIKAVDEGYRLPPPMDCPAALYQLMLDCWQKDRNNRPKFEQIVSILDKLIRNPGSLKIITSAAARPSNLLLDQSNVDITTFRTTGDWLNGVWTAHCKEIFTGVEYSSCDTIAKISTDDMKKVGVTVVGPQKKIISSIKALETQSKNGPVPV

[4] = target: FGFR3(h) (Homo sapiens, UniProt P22607)
[5] = target: T2, IKKα(h) (Homo sapiens, UniProt O15111)
T2 sequence (O15111 1-745): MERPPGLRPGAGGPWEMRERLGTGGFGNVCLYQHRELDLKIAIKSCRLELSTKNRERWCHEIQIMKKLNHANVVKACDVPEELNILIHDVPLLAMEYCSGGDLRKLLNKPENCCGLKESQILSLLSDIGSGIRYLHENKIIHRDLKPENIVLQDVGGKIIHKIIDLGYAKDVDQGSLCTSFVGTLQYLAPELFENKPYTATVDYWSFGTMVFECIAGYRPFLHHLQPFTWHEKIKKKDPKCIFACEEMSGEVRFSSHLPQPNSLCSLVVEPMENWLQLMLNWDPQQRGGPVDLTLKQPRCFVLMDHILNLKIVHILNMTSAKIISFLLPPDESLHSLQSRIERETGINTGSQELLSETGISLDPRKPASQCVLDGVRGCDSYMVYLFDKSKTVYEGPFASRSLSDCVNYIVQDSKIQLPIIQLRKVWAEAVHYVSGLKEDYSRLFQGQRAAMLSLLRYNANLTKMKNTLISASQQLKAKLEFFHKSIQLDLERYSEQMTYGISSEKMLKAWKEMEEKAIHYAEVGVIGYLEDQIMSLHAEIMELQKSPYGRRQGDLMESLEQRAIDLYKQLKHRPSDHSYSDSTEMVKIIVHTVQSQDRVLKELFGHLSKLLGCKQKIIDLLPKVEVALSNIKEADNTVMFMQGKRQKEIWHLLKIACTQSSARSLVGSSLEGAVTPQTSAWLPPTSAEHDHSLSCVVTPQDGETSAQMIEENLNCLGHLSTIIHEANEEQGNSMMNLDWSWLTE

[6] = target: LIMK1(h) (Homo sapiens, UniProt P53667)
[7] = target: Met(D1246N)(h) (Homo sapiens, UniProt P08581, D1228N)
[8] = target: PTK5(h) (Homo sapiens, UniProt P42685)
[9] = target: ROCK-II(h) (Homo sapiens, UniProt O75116)
ROCK-II(h), sequence (O75116 whole entry): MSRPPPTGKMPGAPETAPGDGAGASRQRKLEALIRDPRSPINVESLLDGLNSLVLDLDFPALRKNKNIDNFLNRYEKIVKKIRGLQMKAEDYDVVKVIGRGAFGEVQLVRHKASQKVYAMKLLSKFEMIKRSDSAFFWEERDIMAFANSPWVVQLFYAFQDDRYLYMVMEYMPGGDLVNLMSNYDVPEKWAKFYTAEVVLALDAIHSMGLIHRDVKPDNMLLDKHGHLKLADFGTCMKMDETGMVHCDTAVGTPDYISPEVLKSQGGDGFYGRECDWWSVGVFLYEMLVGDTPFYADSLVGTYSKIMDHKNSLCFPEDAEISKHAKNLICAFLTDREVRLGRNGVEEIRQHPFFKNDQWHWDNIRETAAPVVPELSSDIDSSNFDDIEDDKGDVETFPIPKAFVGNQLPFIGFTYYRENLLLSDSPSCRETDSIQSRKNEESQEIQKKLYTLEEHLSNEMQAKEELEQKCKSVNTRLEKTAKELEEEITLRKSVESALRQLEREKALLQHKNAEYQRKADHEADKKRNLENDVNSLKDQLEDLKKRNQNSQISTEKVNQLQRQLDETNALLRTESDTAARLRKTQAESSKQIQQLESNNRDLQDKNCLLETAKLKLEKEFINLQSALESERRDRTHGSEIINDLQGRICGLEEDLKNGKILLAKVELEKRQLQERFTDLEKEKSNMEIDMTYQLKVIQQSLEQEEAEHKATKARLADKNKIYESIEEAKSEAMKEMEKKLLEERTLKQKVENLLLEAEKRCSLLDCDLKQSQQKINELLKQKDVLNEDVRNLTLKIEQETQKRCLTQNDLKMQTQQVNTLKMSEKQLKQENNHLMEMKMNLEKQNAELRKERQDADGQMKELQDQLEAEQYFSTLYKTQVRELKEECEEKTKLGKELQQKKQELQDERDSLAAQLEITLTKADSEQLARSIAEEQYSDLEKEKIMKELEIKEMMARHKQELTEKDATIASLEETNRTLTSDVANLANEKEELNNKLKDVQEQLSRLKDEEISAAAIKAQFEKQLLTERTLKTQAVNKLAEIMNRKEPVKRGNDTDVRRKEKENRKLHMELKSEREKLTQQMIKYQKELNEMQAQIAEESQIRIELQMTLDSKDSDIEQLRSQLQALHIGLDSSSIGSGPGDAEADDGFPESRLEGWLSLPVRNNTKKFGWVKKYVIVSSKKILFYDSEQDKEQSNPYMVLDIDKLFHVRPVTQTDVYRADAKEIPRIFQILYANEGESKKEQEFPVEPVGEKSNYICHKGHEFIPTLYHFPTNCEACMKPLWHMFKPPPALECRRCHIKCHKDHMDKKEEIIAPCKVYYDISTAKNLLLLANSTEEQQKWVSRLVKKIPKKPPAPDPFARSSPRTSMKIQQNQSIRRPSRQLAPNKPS

[10] = target: SAPK2b(h) (Homo sapiens, UniProt Q15759)
SAPK2b(h), sequence (Q15759 whole entry): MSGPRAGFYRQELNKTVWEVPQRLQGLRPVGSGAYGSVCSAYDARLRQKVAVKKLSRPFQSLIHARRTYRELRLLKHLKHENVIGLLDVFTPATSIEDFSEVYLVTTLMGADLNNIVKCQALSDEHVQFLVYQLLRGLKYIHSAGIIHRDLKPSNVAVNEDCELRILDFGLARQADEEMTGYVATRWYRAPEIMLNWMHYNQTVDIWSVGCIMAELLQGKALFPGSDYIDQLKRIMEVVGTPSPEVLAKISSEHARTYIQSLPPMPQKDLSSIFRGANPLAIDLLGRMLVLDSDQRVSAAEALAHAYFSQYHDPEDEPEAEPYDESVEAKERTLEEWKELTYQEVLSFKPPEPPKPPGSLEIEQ

[11] = target: T3, Tec(h) activated (Homo sapiens, UniProt P42680)
T3 sequence (P42680 1-631): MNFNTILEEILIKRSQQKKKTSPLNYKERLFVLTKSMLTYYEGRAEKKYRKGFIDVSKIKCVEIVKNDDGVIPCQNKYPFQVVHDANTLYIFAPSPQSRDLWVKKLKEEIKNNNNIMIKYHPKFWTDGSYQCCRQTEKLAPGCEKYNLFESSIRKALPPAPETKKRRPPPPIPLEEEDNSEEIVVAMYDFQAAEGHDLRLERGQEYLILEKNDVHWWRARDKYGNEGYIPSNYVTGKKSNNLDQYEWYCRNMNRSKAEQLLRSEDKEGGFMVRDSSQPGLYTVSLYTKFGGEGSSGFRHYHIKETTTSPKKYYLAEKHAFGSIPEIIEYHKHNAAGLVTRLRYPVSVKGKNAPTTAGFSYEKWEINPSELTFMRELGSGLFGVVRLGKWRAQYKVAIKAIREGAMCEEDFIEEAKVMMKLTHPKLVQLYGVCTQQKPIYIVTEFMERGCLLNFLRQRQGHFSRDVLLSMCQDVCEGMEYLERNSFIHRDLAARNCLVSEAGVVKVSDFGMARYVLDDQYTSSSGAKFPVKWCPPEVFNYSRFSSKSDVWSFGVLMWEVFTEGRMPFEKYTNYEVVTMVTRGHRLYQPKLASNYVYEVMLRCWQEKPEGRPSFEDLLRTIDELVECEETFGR

[12] = target: WNK3(h) (Homo sapiens, UniProt Q9BYP7)
WNK3(h), sequence (Q9BYP7 whole entry): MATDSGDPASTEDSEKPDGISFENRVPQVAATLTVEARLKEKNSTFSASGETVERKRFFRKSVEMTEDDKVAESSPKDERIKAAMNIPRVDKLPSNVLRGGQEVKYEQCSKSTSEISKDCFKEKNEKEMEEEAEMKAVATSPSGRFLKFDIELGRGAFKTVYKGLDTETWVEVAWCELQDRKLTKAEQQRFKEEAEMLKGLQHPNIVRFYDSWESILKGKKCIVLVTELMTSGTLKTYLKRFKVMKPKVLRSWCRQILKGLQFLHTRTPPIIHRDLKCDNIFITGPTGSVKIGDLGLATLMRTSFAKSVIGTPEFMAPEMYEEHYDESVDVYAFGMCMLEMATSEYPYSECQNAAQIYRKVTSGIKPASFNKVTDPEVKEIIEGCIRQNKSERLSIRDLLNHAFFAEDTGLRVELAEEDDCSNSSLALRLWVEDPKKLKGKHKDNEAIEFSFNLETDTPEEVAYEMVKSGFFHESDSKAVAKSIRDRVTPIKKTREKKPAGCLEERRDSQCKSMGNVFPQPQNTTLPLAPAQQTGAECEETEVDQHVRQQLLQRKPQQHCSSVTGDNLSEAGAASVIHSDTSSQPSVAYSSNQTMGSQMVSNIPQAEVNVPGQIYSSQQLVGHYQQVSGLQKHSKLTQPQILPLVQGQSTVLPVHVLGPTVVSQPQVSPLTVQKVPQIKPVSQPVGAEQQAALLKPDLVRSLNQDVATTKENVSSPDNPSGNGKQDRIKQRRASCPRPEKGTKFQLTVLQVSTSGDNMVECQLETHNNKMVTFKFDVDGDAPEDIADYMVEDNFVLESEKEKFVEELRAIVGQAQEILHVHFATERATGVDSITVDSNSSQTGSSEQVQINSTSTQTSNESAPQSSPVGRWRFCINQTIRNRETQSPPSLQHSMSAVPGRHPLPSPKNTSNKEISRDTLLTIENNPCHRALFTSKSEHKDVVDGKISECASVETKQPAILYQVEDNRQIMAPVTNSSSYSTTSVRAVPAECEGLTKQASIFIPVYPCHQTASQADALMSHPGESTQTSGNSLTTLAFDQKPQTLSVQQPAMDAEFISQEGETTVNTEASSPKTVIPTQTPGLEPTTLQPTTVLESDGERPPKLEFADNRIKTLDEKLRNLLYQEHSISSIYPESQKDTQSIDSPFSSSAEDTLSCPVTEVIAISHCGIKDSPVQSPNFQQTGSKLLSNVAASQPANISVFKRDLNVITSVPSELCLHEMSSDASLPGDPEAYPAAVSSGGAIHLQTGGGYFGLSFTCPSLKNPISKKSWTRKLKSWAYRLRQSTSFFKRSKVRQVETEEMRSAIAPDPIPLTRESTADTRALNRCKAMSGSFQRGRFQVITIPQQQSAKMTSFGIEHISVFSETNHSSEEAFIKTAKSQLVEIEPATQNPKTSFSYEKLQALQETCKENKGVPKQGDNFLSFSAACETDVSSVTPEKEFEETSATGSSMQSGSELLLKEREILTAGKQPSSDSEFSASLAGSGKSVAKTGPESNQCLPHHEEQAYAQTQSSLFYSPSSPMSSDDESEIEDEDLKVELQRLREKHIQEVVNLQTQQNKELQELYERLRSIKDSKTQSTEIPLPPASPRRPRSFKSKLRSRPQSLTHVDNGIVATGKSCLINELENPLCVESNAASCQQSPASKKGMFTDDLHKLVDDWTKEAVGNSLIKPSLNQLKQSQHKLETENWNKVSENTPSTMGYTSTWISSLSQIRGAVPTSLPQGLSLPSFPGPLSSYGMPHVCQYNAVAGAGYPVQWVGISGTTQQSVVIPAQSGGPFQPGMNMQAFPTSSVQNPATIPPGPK

AMPKα2(h), sequence (P54646 whole entry): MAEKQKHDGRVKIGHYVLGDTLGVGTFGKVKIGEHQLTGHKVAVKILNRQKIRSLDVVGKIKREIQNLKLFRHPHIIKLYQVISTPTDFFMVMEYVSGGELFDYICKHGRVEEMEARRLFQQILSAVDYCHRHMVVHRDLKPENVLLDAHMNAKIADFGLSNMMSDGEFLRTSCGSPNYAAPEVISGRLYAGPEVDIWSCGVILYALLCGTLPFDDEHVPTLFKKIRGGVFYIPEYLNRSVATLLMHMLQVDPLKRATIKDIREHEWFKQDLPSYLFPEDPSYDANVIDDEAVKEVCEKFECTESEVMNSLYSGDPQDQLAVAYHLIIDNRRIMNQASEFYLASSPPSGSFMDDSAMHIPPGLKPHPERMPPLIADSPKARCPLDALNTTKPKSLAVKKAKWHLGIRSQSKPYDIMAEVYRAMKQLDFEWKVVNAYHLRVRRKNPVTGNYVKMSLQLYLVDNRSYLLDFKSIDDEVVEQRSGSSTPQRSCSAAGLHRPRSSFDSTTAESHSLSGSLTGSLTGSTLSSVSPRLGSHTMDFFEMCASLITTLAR
AMPKα2(h), sequence (Q9Y478 whole entry partner): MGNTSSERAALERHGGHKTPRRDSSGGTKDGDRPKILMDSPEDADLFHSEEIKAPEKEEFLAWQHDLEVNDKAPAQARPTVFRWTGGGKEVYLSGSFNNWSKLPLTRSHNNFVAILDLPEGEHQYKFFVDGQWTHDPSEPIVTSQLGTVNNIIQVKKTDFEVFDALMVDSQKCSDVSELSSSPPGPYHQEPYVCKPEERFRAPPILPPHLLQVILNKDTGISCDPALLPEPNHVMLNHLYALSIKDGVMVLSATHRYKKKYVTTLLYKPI
AMPKα2(h), sequence (P54619 whole entry partner): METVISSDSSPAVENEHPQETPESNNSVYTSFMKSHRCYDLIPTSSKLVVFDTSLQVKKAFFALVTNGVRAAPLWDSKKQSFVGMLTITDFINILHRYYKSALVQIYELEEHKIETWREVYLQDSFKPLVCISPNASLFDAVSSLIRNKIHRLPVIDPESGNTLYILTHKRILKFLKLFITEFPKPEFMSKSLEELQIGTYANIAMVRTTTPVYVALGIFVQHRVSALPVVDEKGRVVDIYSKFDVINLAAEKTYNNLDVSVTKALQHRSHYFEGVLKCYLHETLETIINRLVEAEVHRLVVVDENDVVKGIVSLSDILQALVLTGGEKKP

**Q.** What does the source list for HRRIKAWLKKIKALARQLGVAA [MMI-0500]?
**A.** % activity [1]: 9%; % activity [2]: 12%; % activity [3]: 33%; % activity [4]: 10%; % activity [5]: 50%; % activity [6]: 87%; % activity [7]: 90%; % activity [8]: 96%; % activity [9]: 2%; % activity [10]: 42%; % activity [11]: 33%; % activity [12]: 9%

**Q.** What does the source list for YARAAARQARAKALNRQLGVA [MMI-0200]?
**A.** % activity [1]: 88%; % activity [2]: 99%; % activity [4]: 208%; % activity [7]: 149%; % activity [8]: 108%; % activity [9]: 85%; % activity [10]: 95%; % activity [11]: 77%; % activity [12]: 97%

**Q.** For KAFAKLAARLYRKALARQLGVAA [MMI-0400], which “% activity” value [1] is on record?
**A.** The value was 58%.

**Q.** And the “% activity” value [2]?
**A.** Its value is 41%.

**Q.** What about the “% activity” value [3] of the same sequence?
**A.** The value was 12%.

**Q.** And the “% activity” value [4]?
**A.** The value was 0%.

**Q.** And the “% activity” value [5]?
**A.** Its value is 87%.

**Q.** What about the “% activity” value [6] of the same sequence?
**A.** Its value is 92%.

**Q.** What about the “% activity” value [7] of the same sequence?
**A.** The value was 31%.

**Q.** And the “% activity” value [8]?
**A.** Its value is 129%.

**Q.** What about the “% activity” value [9] of the same sequence?
**A.** The value was 77%.

**Q.** And the “% activity” value [10]?
**A.** Its value is 82%.

**Q.** And the “% activity” value [11]?
**A.** Its value is 29%.

**Q.** What about the “% activity” value [12] of the same sequence?
**A.** The value was 74%.

**Q.** For FAKLAARLYRKALARQLGVAA [MMI-0300], which “% activity” value [1] is on record?
**A.** The value was 54%.

**Q.** What about the “% activity” value [2] of the same sequence?
**A.** Its value is 52%.

**Q.** And the “% activity” value [3]?
**A.** The value was 6%.

**Q.** And the “% activity” value [5]?
**A.** Its value is 93%.

**Q.** And the “% activity” value [6]?
**A.** The value was 88%.

**Q.** And the “% activity” value [7]?
**A.** Its value is 82%.

**Q.** And the “% activity” value [8]?
**A.** Its value is 132%.

**Q.** What about the “% activity” value [9] of the same sequence?
**A.** The value was 74%.

**Q.** And the “% activity” value [10]?
**A.** Its value is 81%.

**Q.** What about the “% activity” value [11] of the same sequence?
**A.** The value was 56%.

**Q.** What about the “% activity” value [12] of the same sequence?
**A.** Its value is 77%.
